Test results from paper PMC6300978 (Chemico-biological interactions, 2015).
Each block holds one molecule with its values, some of them ahead of it.

How the values were obtained:
[1] = probe reaction for UGT1A1; cited from earlier work
[2] = Chemical inhibition of GA glucuronidation; conditions: GA 2 µM, M2 formation
UGT1A8 = conditions: mycophenolic acid as substrate of UGT1A8; cited from earlier work
[3] = substrate: CC1(C)C=Cc2c(ccc3c2OC[C@@H](c2ccc(O)cc2O)C3)O1; assay: GA glucuronidation kinetics by recombinant UGT1A10; type: in vitro ADME, human; conditions: other: UGT1A10, M2 formation, substrate inhibition model; pH 7.4
[4] = substrate: CC1(C)C=Cc2c(ccc3c2OC[C@@H](c2ccc(O)cc2O)C3)O1; assay: GA glucuronidation by recombinant UGT1A8; type: in vitro ADME, human; conditions: other: UGT1A8, M2 formation, substrate inhibition model; pH 7.4
[5] = substrate: CC1(C)C=Cc2c(ccc3c2OC[C@@H](c2ccc(O)cc2O)C3)O1; assay: GA glucuronidation kinetics by recombinant UGT1A1; type: in vitro ADME, human; conditions: Michaelis–Menten, pH 7.4
[6] = substrate: CC1(C)C=Cc2c(ccc3c2OC[C@@H](c2ccc(O)cc2O)C3)O1; assay: GA glucuronidation kinetics by recombinant UGT1A3; type: in vitro ADME, human; conditions: other: UGT1A3, M2 formation, Michaelis–Menten; pH 7.4

Molecule: C#C[C@]1(O)CC[C@H]2[C@@H]3CCc4cc(O)ccc4[C@H]3CC[C@@]21C [ethylestradiol]
rate of 3-O-glucuronidation by DLM relative to HLM [1]: 10 fold

remaining GA glucuronidation activity in HIM ([2]; inhibitor 1 mM (Fig. 6)): above 85 % of the control
Molecule: OC(Cn1cncn1)(Cn1cncn1)c1ccc(F)cc1F [fluconazole]

Molecule: C=CCc1ccc(O)c(-c2cc(CC=C)ccc2O)c1 [magnolol]
remaining GA glucuronidation activity in HIM ([2]; inhibitor 1 µM): above 85 % of the control

remaining GA glucuronidation activity in HIM ([2]; inhibitor 10 µM): 28 % of the control
Molecule: COc1c(C)c2c(c(O)c1C/C=C(\C)CCC(=O)O)C(=O)OC2 [mycophenolic acid]
Km (UGT1A8): 1.39 µM

remaining GA glucuronidation activity in HIM ([2]; inhibitor 1 µM): above 85 % of the control
Molecule: Cc1cn(-c2cc(NC(=O)c3ccc(C)c(Nc4nccc(-c5cccnc5)n4)c3)cc(C(F)(F)F)c2)cn1 [nilotinib]

B1: recombinant human UGT1A10 (Homo sapiens) (protein)
chain: GKLLVVPMDGSHWFTMQSVVEKLILRGHEVVVVMPEVSWQLERSLNCTVKTYSTSYTLEDQNREFMVFAHAQWKAQAQSIFSLLMSSSSGFLDLFFSHCRSLFNDRKLVEYLKESSFDAVFLDPFDTCGLIVAKYFSLPSVVFTRGIFCHHLEEGAQCPAPLSYVPNDLLGFSDAMTFKERVWNHIVHLEDHLFCQYLFRNALEIASEILQTPVTAYDLYSHTSIWLLRTDFVLDYPKPVMPNMIFIGGINCHQGKPLPMEFEAYINASGEHGIVVFSLGSMVSEIPEKKAMAIADALGKIPQTVLWRYTGTRPSNLANNTILVKWLPQNDLLGHPMTRAFITHAGSHGVYESICNGVPMVMMPLFGDQMDNAKRMETKGAGVTLNVLEMTSEDLENALKAVINDKSYKENIMRLSSLHKDRPVEPLDLAVFWVEFVMRHKGAPHLRPAAHDLTWYQYHSLDVIGFLLAVVLTVAFITFKCCAYGYRKCLGKKGRVKKAHKSKTH
Km [3]: 28 ± 8 µM | Vmax [3]: 0.5 ± 0.1 nmol/min/mg

B2: recombinant human UGT1A8 (Homo sapiens) (protein)
chain: GKLLVVPMDGSHWFTMQSVVEKLILRGHEVVVVMPEVSWQLGKSLNCTVKTYSTSYTLEDLDREFMDFADAQWKAQVRSLFSLFLSSSNGFFNLFFSHCRSLFNDRKLVEYLKESSFDAVFLDPFDACGLIVAKYFSLPSVVFARGIACHYLEEGAQCPAPLSYVPRILLGFSDAMTFKERVRNHIMHLEEHLFCQYFSKNALEIASEILQTPVTAYDLYSHTSIWLLRTDFVLDYPKPVMPNMIFIGGINCHQGKPLPMEFEAYINASGEHGIVVFSLGSMVSEIPEKKAMAIADALGKIPQTVLWRYTGTRPSNLANNTILVKWLPQNDLLGHPMTRAFITHAGSHGVYESICNGVPMVMMPLFGDQMDNAKRMETKGAGVTLNVLEMTSEDLENALKAVINDKSYKENIMRLSSLHKDRPVEPLDLAVFWVEFVMRHKGAPHLRPAAHDLTWYQYHSLDVIGFLLAVVLTVAFITFKCCAYGYRKCLGKKGRVKKAHKSKTH
Km [4]: 64 ± 9 µM | Vmax [4]: 11 ± 3 nmol/min/mg

B3: recombinant human UGT1A1 (Homo sapiens) (protein)
chain: HAGKILLIPVDGSHWLSMLGAIQQLQQRGHEIVVLAPDASLYIRDGAFYTLKTYPVPFQREDVKESFVSLGHNVFENDSFLQRVIKTYKKIKKDSAMLLSGCSHLLHNKELMASLAESSFDVMLTDPFLPCSPIVAQYLSLPTVFFLHALPCSLEFEATQCPNPFSYVPRPLSSHSDHMTFLQRVKNMLIAFSQNFLCDVVYSPYATLASEFLQREVTVQDLLSSASVWLFRSDFVKDYPRPIMPNMVFVGGINCLHQNPLSQEFEAYINASGEHGIVVFSLGSMVSEIPEKKAMAIADALGKIPQTVLWRYTGTRPSNLANNTILVKWLPQNDLLGHPMTRAFITHAGSHGVYESICNGVPMVMMPLFGDQMDNAKRMETKGAGVTLNVLEMTSEDLENALKAVINDKSYKENIMRLSSLHKDRPVEPLDLAVFWVEFVMRHKGAPHLRPAAHDLTWYQYHSLDVIGFLLAVVLTVAFITFKCCAYGYRKCLGKKGRVKKAHKSKTH
Km ([5]; other: UGT1A1, M1 formation): 7.6 ± 1.8 µM | Vmax ([5]; other: UGT1A1, M1 formation): 0.17 ± 0.01 nmol/min/mg | Km ([5]; other: UGT1A1, M2 formation): 24 ± 14 µM | Vmax ([5]; other: UGT1A1, M2 formation): 0.11 ± 0.03 nmol/min/mg

B4: recombinant human UGT1A3 (Homo sapiens) (protein)
chain: GKVLVVPIDGSHWLSMREVLRELHARGHQAVVLTPEVNMHIKEENFFTLTTYAISWTQDEFDRHVLGHTQLYFETEHFLKKFFRSMAMLNNMSLVYHRSCVELLHNEALIRHLNATSFDVVLTDPVNLCAAVLAKYLSIPTVFFLRNIPCDLDFKGTQCPNPSSYIPRLLTTNSDHMTFMQRVKNMLYPLALSYICHAFSAPYASLASELFQREVSVVDILSHASVWLFRGDFVMDYPRPIMPNMVFIGGINCANRKPLSQEFEAYINASGEHGIVVFSLGSMVSEIPEKKAMAIADALGKIPQTVLWRYTGTRPSNLANNTILVKWLPQNDLLGHPMTRAFITHAGSHGVYESICNGVPMVMMPLFGDQMDNAKRMETKGAGVTLNVLEMTSEDLENALKAVINDKSYKENIMRLSSLHKDRPVEPLDLAVFWVEFVMRHKGAPHLRPAAHDLTWYQYHSLDVIGFLLAVVLTVAFITFKCCAYGYRKCLGKKGRVKKAHKSKTH
Km [6]: 11 ± 4 µM | Vmax [6]: 0.32 ± 0.06 nmol/min/mg
